From paper doi:10.1101/2021.01.21.427566, “Gradual opening of Smc arms in prokaryotic condensin” (bioRxiv, 2021) come the findings set out here.

Data set [1] deals with the molecule itself. In words: EPR-DEER; MTSL-labelled single-cysteine Smc, 5 µM, mixed with ScpA and ScpB (similar trends without ScpAB); apo, or with 1 mM ATP and 10 µM dsDNA40; 50 mM Tris-HCl pH 7.5, 50 mM NaCl, 2 mM MgCl2, 40 % ethylene glycol-d6, 90 % deuterium oxide; shock-frozen, DEER traces at 50 K, Q band; spin-spin distances between the two Smc of a dimer.
Data set [2] concerns the molecule itself. In words: cross-linking; purified single-cysteine Smc, 30 µM dimers with 600 µM M3M in 50 mM Tris-HCl pH 7.5, 200 mM NaCl, 4 °C overnight; non-reducing SDS-PAGE, Coomassie; reversed by up to 10 mM DTT.

B1: Smc^3S(R643C, E1118Q) (natural protein, B. subtilis, UniProt P51834 1-1186, looked up)
chain: MFLKRLDVIGFKSFAERISVDFVKGVTAVVGPNGSGKSNITDAIRWVLGEQSARSLRGGKMEDIIFAGSDSRKRLNLAEVTLTLDNDDHFLPIDFHEVSVTRRVYRSGESEFLINNQPSRLKDIIDLFMDSGLGKEAFSIISQGKVEEILSSKAEDRRSIFEEAAGVLKYKTRKKKAENKLFETQDNLNRVEDILHELEGQVEPLKIQASIAKDYLEKKKELEHVEIALTAYDIEELHGKWSTLKEKVQMAKEEELAESSAISAKEAKIEDTRDKIQALDESVDELQQVLLVTSEELEKLEGRKEVLKERKKNAVQNQEQLEEAIVQFQQKETVLKEELSKQEAVFETLQAEVKQLRAQVKEKQQALSLHNENVEEKIEQLKSDYFELLNSQASIRNELQLLDDQMSQSAVTLQRLADNNEKHLQERHDISARKAASETEFARIEQEIHSQVGAYRDMQTKYEQKKRQYEKNESALYQAYQYVQQARSKKDMLETMQGDFSGFYQGVKEVLKAKERLGGIRGAVLELISTEQKYETAIEIALGASAQHVVTDDEQSARKAIQYLKQNSFGRATFLPLSVIRDRQLQSRDAETAARHSSFLGVASELVTFDPAYRSVIQNLLGTVLITEDLKGANELAKLLGHCYRIVTLEGDVVNPGGSMTGGAVKKKNNSLLGRSRELEDVTKRLAEMEEKTALLEQEVKTLKHSIQDMEKKLADLRETGEGLRLKQQDVKGQLYELQVAEKNINTHLELYDQEKSALSESDEERKVRKRKLEEELSAVSEKMKQLEEDIDRLTKQKQTQSSTKESLSNELTELKIAAAKKEQASKGEEDNLARLKKELTETELALKEAKEDLSFLTSEMSSSTSGEEKLEEAAKHKLNDKTKTIELIALRRDQRIKLQHGLDTYERELKEMKRLYKQKTTLLKDEEVKLGRMEVELDNLLQYLREEYSLSFEGAKEKYQLETDPEEARKRVKLIKLAIEELGTVNLGSIDEFERVNERYKFLSEQKEDLTEAKNTLFQVIEEMDEEMTKRFNDTFVQIRSHFDQVFRSLFGGGRAELRLTDPNDLLHSGVEIIAQPPGKKLQNLNLLSGGERALTAIALLFSILKVRPVPFCVLDQVEAALDEANVFRFAQYLKKYSSDTQFIVITHRKGTMEEADVLYGVTMQESGVSKVISVKLEETKEFVQ
modifications: MTSL spin label on the engineered cysteine 643
notes: Smc, Bacillus subtilis (Bsu), cysteine-lite Smc^3S background with R643C and Walker B E1118Q; also called Smc^3S(EQ) single cysteine mutant; source: E. coli BL21-Gold (DE3), purified (HiTrap Blue, Heparin, gel filtration)
Consider B1, for which, in data set [1], the binding result is “binds”.

B2: Smc^3SV(Q320C) (natural protein, B. subtilis, UniProt P51834 1-1186, looked up)
chain: MFLKRLDVIGFKSFAERISVDFVKGVTAVVGPNGSGKSNITDAIRWVLGEQSARSLRGGKMEDIIFAGSDSRKRLNLAEVTLTLDNDDHFLPIDFHEVSVTRRVYRSGESEFLINNQPSRLKDIIDLFMDSGLGKEAFSIISQGKVEEILSSKAEDRRSIFEEAAGVLKYKTRKKKAENKLFETQDNLNRVEDILHELEGQVEPLKIQASIAKDYLEKKKELEHVEIALTAYDIEELHGKWSTLKEKVQMAKEEELAESSAISAKEAKIEDTRDKIQALDESVDELQQVLLVTSEELEKLEGRKEVLKERKKNAVQNQECLEEAIVQFQQKETVLKEELSKQEAVFETLQAEVKQLRAQVKEKQQALSLHNENVEEKIEQLKSDYFELLNSQASIRNELQLLDDQMSQSAVTLQRLADNNEKHLQERHDISARKAASETEFARIEQEIHSQVGAYRDMQTKYEQKKRQYEKNESALYQAYQYVQQARSKKDMLETMQGDFSGFYQGVKEVLKAKERLGGIRGAVLELISTEQKYETAIEIALGASAQHVVTDDEQSARKAIQYLKQNSFGRATFLPLSVIRDRQLQSRDAETAARHSSFLGVASELVTFDPAYRSVIQNLLGTVLITEDLKGANELAKLLGHRYRIVTLEGDVVNPGGSMTGGAVKKKNNSLLGRSRELEDVTKRLAEMEEKTALLEQEVKTLKHSIQDMEKKLADLRETGEGLRLKQQDVKGQLYELQVAEKNINTHLELYDQEKSALSESDEERKVRKRKLEEELSAVSEKMKQLEEDIDRLTKQKQTQSSTKESLSNELTELKIAAAKKEQASKGEEDNLARLKKELTETELALKEAKEDLSFLTSEMSSSTSGEEKLEEAAKHKLNDKTKTIELIALRRDQRIKLQHGLDTYERELKEMKRLYKQKTTLLKDEEVKLGRMEVELDNLLQYLREEYSLSFEGAKEKYQLETDPEEARKRVKLIKLAIEELGTVNLGSIDEFERVNERYKFLSEQKEDLTEAKNTLFQVIEEMDEEMTKRFNDTFVQIRSHFDQVFRSLFGGGRAELRLTDPNDLLHSGVEIIAQPPGKKLQNLNLLSGGERALTAIALLFSILKVRPVPFVVLDEVEAALDEANVFRFAQYLKKYSSDTQFIVITHRKGTMEEADVLYGVTMQESGVSKVISVKLEETKEFVQ
modifications: engineered cysteine 320 cross-linked with M3M
notes: Smc, Bacillus subtilis (Bsu), cys-free Smc^3SV background with Q320C; also called Q320C at contact 4^N; source: E. coli BL21-Gold (DE3), purified (HiTrap Blue, Heparin, gel filtration without reducing agent)
With B2, the binding result in data set [2] is “binds”.

B3: Smc^3SV(Y944C) (natural protein, B. subtilis, UniProt P51834 1-1186, looked up)
chain: MFLKRLDVIGFKSFAERISVDFVKGVTAVVGPNGSGKSNITDAIRWVLGEQSARSLRGGKMEDIIFAGSDSRKRLNLAEVTLTLDNDDHFLPIDFHEVSVTRRVYRSGESEFLINNQPSRLKDIIDLFMDSGLGKEAFSIISQGKVEEILSSKAEDRRSIFEEAAGVLKYKTRKKKAENKLFETQDNLNRVEDILHELEGQVEPLKIQASIAKDYLEKKKELEHVEIALTAYDIEELHGKWSTLKEKVQMAKEEELAESSAISAKEAKIEDTRDKIQALDESVDELQQVLLVTSEELEKLEGRKEVLKERKKNAVQNQEQLEEAIVQFQQKETVLKEELSKQEAVFETLQAEVKQLRAQVKEKQQALSLHNENVEEKIEQLKSDYFELLNSQASIRNELQLLDDQMSQSAVTLQRLADNNEKHLQERHDISARKAASETEFARIEQEIHSQVGAYRDMQTKYEQKKRQYEKNESALYQAYQYVQQARSKKDMLETMQGDFSGFYQGVKEVLKAKERLGGIRGAVLELISTEQKYETAIEIALGASAQHVVTDDEQSARKAIQYLKQNSFGRATFLPLSVIRDRQLQSRDAETAARHSSFLGVASELVTFDPAYRSVIQNLLGTVLITEDLKGANELAKLLGHRYRIVTLEGDVVNPGGSMTGGAVKKKNNSLLGRSRELEDVTKRLAEMEEKTALLEQEVKTLKHSIQDMEKKLADLRETGEGLRLKQQDVKGQLYELQVAEKNINTHLELYDQEKSALSESDEERKVRKRKLEEELSAVSEKMKQLEEDIDRLTKQKQTQSSTKESLSNELTELKIAAAKKEQASKGEEDNLARLKKELTETELALKEAKEDLSFLTSEMSSSTSGEEKLEEAAKHKLNDKTKTIELIALRRDQRIKLQHGLDTYERELKEMKRLYKQKTTLLKDEEVKLGRMEVELDNLLQCLREEYSLSFEGAKEKYQLETDPEEARKRVKLIKLAIEELGTVNLGSIDEFERVNERYKFLSEQKEDLTEAKNTLFQVIEEMDEEMTKRFNDTFVQIRSHFDQVFRSLFGGGRAELRLTDPNDLLHSGVEIIAQPPGKKLQNLNLLSGGERALTAIALLFSILKVRPVPFVVLDEVEAALDEANVFRFAQYLKKYSSDTQFIVITHRKGTMEEADVLYGVTMQESGVSKVISVKLEETKEFVQ
modifications: engineered cysteine 944 cross-linked with M3M
notes: Smc, Bacillus subtilis (Bsu), cys-free Smc^3SV background with Y944C; also called Y944C at contact 3^C; source: E. coli BL21-Gold (DE3), purified (HiTrap Blue, Heparin, gel filtration without reducing agent)
As for B3, in data set [2], the binding result is given as “binds”.

B4: Smc^3SV(A715C) (natural protein, B. subtilis, UniProt P51834 1-1186, looked up)
chain: MFLKRLDVIGFKSFAERISVDFVKGVTAVVGPNGSGKSNITDAIRWVLGEQSARSLRGGKMEDIIFAGSDSRKRLNLAEVTLTLDNDDHFLPIDFHEVSVTRRVYRSGESEFLINNQPSRLKDIIDLFMDSGLGKEAFSIISQGKVEEILSSKAEDRRSIFEEAAGVLKYKTRKKKAENKLFETQDNLNRVEDILHELEGQVEPLKIQASIAKDYLEKKKELEHVEIALTAYDIEELHGKWSTLKEKVQMAKEEELAESSAISAKEAKIEDTRDKIQALDESVDELQQVLLVTSEELEKLEGRKEVLKERKKNAVQNQEQLEEAIVQFQQKETVLKEELSKQEAVFETLQAEVKQLRAQVKEKQQALSLHNENVEEKIEQLKSDYFELLNSQASIRNELQLLDDQMSQSAVTLQRLADNNEKHLQERHDISARKAASETEFARIEQEIHSQVGAYRDMQTKYEQKKRQYEKNESALYQAYQYVQQARSKKDMLETMQGDFSGFYQGVKEVLKAKERLGGIRGAVLELISTEQKYETAIEIALGASAQHVVTDDEQSARKAIQYLKQNSFGRATFLPLSVIRDRQLQSRDAETAARHSSFLGVASELVTFDPAYRSVIQNLLGTVLITEDLKGANELAKLLGHRYRIVTLEGDVVNPGGSMTGGAVKKKNNSLLGRSRELEDVTKRLAEMEEKTALLEQEVKTLKHSIQDMEKKLCDLRETGEGLRLKQQDVKGQLYELQVAEKNINTHLELYDQEKSALSESDEERKVRKRKLEEELSAVSEKMKQLEEDIDRLTKQKQTQSSTKESLSNELTELKIAAAKKEQASKGEEDNLARLKKELTETELALKEAKEDLSFLTSEMSSSTSGEEKLEEAAKHKLNDKTKTIELIALRRDQRIKLQHGLDTYERELKEMKRLYKQKTTLLKDEEVKLGRMEVELDNLLQYLREEYSLSFEGAKEKYQLETDPEEARKRVKLIKLAIEELGTVNLGSIDEFERVNERYKFLSEQKEDLTEAKNTLFQVIEEMDEEMTKRFNDTFVQIRSHFDQVFRSLFGGGRAELRLTDPNDLLHSGVEIIAQPPGKKLQNLNLLSGGERALTAIALLFSILKVRPVPFVVLDEVEAALDEANVFRFAQYLKKYSSDTQFIVITHRKGTMEEADVLYGVTMQESGVSKVISVKLEETKEFVQ
modifications: engineered cysteine 715 cross-linked with M3M
notes: Smc, Bacillus subtilis (Bsu), cys-free Smc^3SV background with A715C; also called A715C at contact 7^C; source: E. coli BL21-Gold (DE3), purified (HiTrap Blue, Heparin, gel filtration without reducing agent)
As to B4, the binding result in data set [2] is given as “binds”.

B5: Smc^3SV(D193C) (natural protein, B. subtilis, UniProt P51834 1-1186, looked up)
chain: MFLKRLDVIGFKSFAERISVDFVKGVTAVVGPNGSGKSNITDAIRWVLGEQSARSLRGGKMEDIIFAGSDSRKRLNLAEVTLTLDNDDHFLPIDFHEVSVTRRVYRSGESEFLINNQPSRLKDIIDLFMDSGLGKEAFSIISQGKVEEILSSKAEDRRSIFEEAAGVLKYKTRKKKAENKLFETQDNLNRVECILHELEGQVEPLKIQASIAKDYLEKKKELEHVEIALTAYDIEELHGKWSTLKEKVQMAKEEELAESSAISAKEAKIEDTRDKIQALDESVDELQQVLLVTSEELEKLEGRKEVLKERKKNAVQNQEQLEEAIVQFQQKETVLKEELSKQEAVFETLQAEVKQLRAQVKEKQQALSLHNENVEEKIEQLKSDYFELLNSQASIRNELQLLDDQMSQSAVTLQRLADNNEKHLQERHDISARKAASETEFARIEQEIHSQVGAYRDMQTKYEQKKRQYEKNESALYQAYQYVQQARSKKDMLETMQGDFSGFYQGVKEVLKAKERLGGIRGAVLELISTEQKYETAIEIALGASAQHVVTDDEQSARKAIQYLKQNSFGRATFLPLSVIRDRQLQSRDAETAARHSSFLGVASELVTFDPAYRSVIQNLLGTVLITEDLKGANELAKLLGHRYRIVTLEGDVVNPGGSMTGGAVKKKNNSLLGRSRELEDVTKRLAEMEEKTALLEQEVKTLKHSIQDMEKKLADLRETGEGLRLKQQDVKGQLYELQVAEKNINTHLELYDQEKSALSESDEERKVRKRKLEEELSAVSEKMKQLEEDIDRLTKQKQTQSSTKESLSNELTELKIAAAKKEQASKGEEDNLARLKKELTETELALKEAKEDLSFLTSEMSSSTSGEEKLEEAAKHKLNDKTKTIELIALRRDQRIKLQHGLDTYERELKEMKRLYKQKTTLLKDEEVKLGRMEVELDNLLQYLREEYSLSFEGAKEKYQLETDPEEARKRVKLIKLAIEELGTVNLGSIDEFERVNERYKFLSEQKEDLTEAKNTLFQVIEEMDEEMTKRFNDTFVQIRSHFDQVFRSLFGGGRAELRLTDPNDLLHSGVEIIAQPPGKKLQNLNLLSGGERALTAIALLFSILKVRPVPFVVLDEVEAALDEANVFRFAQYLKKYSSDTQFIVITHRKGTMEEADVLYGVTMQESGVSKVISVKLEETKEFVQ
modifications: engineered cysteine 193 cross-linked with M3M
notes: Smc, Bacillus subtilis (Bsu), cys-free Smc^3SV background with D193C; also called D193C at contact 1^N; source: E. coli BL21-Gold (DE3), purified (HiTrap Blue, Heparin, gel filtration without reducing agent)
B5: the binding result in data set [2] is on record as “binds”.
